Among the data in paper PMC7769458, “In vitro and in vivo characterization of Recifercept, a soluble fibroblast growth factor receptor 3, as treatment for achondroplasia” (PLoS ONE, 2020) are Kd, koff and kon values, retold here.

For orientation: Kd means the concentration at which binding is half-saturated. For orientation: koff means the first-order rate constant of dissociation. For orientation: kon means the second-order rate constant of association.

Common to all, as to details: both partners purified
Experiment [1] addresses human FGF8 (human, UniProt P55075 23-233, Isoform, supplier and limits are not printed. Assumed the FGF8b isoform (mature 23-215), the usual commercial recombinant form and the one that binds FGFR3c; the P55075 canonical sequence is FGF8e. Th). Put plainly: SPR; as a1 (Recifercept amine-coupled on a CM5 chip, hFGF in HBS-EP, single cycle kinetics, 0 to 16 nM, 1:1 fit, triplicate) but with 16 nM heparin in each tested concentration (FGF8 subfamily). A general note: Surface plasmon resonance follows binding to a sensor surface in real time, without labels.

The target of experiment [2] is T1, human FGF17 (human, UniProt O60258 23-216).
T1 construct: fibroblast growth factor 17, human, recombinant; also called hFGF17; source: recombinant
T1 sequence (looked up): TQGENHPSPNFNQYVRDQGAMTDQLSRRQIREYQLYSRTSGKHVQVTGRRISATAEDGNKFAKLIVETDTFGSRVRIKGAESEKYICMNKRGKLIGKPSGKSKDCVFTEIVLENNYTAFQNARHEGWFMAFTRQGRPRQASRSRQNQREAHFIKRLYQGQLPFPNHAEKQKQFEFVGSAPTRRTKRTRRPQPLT
The experiment is described as above.

For experiment [3], the target named is T2, human FGF18 (human, UniProt O76093 28-207).
T2 construct: fibroblast growth factor 18, human, recombinant; also called hFGF18; source: recombinant
T2 sequence (looked up): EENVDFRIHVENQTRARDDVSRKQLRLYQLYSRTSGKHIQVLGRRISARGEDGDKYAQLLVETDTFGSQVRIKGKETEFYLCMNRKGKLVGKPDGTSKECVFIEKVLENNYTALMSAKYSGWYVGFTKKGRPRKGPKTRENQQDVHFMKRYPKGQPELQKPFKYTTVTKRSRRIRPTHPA
The experiment is described as above.

Experiment [4] concerns the target T3, human FGF1 (human, UniProt P05230 16-155).
T3 construct: fibroblast growth factor 1, human, recombinant; also called hFGF1; source: recombinant; bought: Peprotech for the cell assays
Kind of experiment: SPR; Biacore T200; Recifercept amine-coupled on a CM5 chip (about 400 RU); hFGF injected in HBS-EP (0.01 M HEPES, 0.15 M NaCl, 3 mM EDTA, 0.05% polysorbate 20, pH 7.4) at 50 ul/min; single cycle kinetics, 5 concentrations from 0 to 16 nM; global 1:1 fit; triplicate.

Experiment [5] deals with T4, human FGF2 (human, UniProt P09038 143-288).
T4 construct: fibroblast growth factor 2, human, recombinant; also called hFGF2; source: recombinant; bought: Peprotech for the cell assays
T4 sequence (P09038 143-288): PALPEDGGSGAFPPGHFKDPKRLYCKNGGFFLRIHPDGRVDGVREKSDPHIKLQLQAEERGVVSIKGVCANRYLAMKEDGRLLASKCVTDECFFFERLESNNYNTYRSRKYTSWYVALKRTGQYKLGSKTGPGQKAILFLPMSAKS
The description is as above.

In experiment [6] the target is human FGF9 (human, UniProt P31371 4-208). The description is as above.
Experiment [7] has as its target T5, human FGF16 (human, UniProt O43320 1-207).
T5 construct: fibroblast growth factor 16, human, recombinant; also called hFGF16; source: recombinant
Described as above.

The target of experiment [8] is T6, human FGF20 (human, UniProt Q9NP95 1-211).
T6 construct: fibroblast growth factor 20, human, recombinant; also called hFGF20; source: recombinant
T6 sequence (Q9NP95 whole entry): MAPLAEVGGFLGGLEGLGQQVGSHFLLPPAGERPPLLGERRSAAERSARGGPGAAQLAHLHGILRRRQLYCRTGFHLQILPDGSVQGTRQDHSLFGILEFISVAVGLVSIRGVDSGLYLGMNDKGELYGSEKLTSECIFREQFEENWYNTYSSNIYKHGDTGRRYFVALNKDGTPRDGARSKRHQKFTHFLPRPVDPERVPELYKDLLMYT
The description is as above.

T3 sequence (P05230 16-155): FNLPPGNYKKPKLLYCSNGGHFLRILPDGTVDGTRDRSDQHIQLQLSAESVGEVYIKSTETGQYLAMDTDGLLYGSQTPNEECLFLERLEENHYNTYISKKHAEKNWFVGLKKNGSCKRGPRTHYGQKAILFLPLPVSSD

B1: Recifercept (receptor)
chain: ESLGTEQRVVGRAAEVPGPEPGQQEQLVFGSGDAVELSCPPPGGGPMGPTVWVKDGTGLVPSERVLVGPQRLQVLNASHEDSGAYSCRQRLTQRVLCHFSVRVTDAPSSGDDEDGEDEAEDTGVDTGAPYWTRPERMDKKLLAVPAANTVRFRCPAAGNPTPSISWLKNGREFRGEHRIGGIKLRHQQWSLVMESVVPSDRGNYTCVVENKFGSIRQTYTLDVLERSPHRPILQAGLPANQTAVLGSDVEFHCKVYSDAQPHIQWLKHVEVNGSKVGPDGTPYVTVLKTAGANTTDKELEVLSLHNVTFEDAGEYTCLAGNSIGFSHHSAWLVVLPVSLESNASMSSNT
notes: extracellular domain of human FGFR3 (P22607); also called soluble fibroblast growth factor receptor 3; modified soluble recombinant human FGFR3; source: GPEX CHO cell line, 50L single use bioreactor, media filtered, purified using chromatography
For B1, the Kd was 4.28 nM in experiment [1]; 2.73 nM in experiment [2]; 4.17 nM in experiment [3]; 0.74 nM in experiment [4]; 3.4 nM in experiment [5]; 0.75 nM in experiment [6]. Also, the equilibrium dissociation constant (Kd) in experiment [7] was 0.94 nM; in experiment [8], 7.1 nM. Besides, the koff turned out to be 0.000705 s⁻¹ in experiment [1]; 0.000964 s⁻¹ in experiment [2]; 0.00105 s⁻¹ in experiment [3]; 0.000904 s⁻¹ in experiment [4]; 0.000898 s⁻¹ in experiment [5]; 0.00133 s⁻¹ in experiment [6]. Also, the off-rate (koff) in experiment [7] came out at 0.00253 s⁻¹; in experiment [8] it was 0.000548 s⁻¹. In addition, the on-rate constant (kon) in experiment [1] worked out at 171000 M⁻¹ s⁻¹; in experiment [2], 390000 M⁻¹ s⁻¹; in experiment [3], 270000 M⁻¹ s⁻¹; in experiment [4] it was 1.33e+06 M⁻¹ s⁻¹; in experiment [5], 279000 M⁻¹ s⁻¹; in experiment [6], 1.83e+06 M⁻¹ s⁻¹. In addition, the kon in experiment [7] worked out at 2.8e+06 M⁻¹ s⁻¹; in experiment [8], 123000 M⁻¹ s⁻¹.
